Assay results as given in the supplement of paper PMC12764529.
± gives the half width of the 95% confidence interval.

What was measured:
[1] = folding stability dG unfold from chymotrypsin proteolysis; higher = more stable
How it was run: (§1)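 Designed mini-proteins with no cysteine and under 80 residues were kept only if AlphaFold2 dimer inter-PAE was above 15. In a PA-tagged cDNA display construct, they were digested with trypsin and chymotrypsin and then sequenced. K50 was inferred by Bayesian fitting of counts, and unfolding free energy was derived per protease or combined against a sequence-predicted unfolded-state K50 and a shared folded-state K50.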

[2] = folding stability dG unfold from trypsin proteolysis; higher = more stable
How it was run: as §1

[3] = folding stability dG unfold (combined trypsin and chymotrypsin); higher = more stable
How it was run: as §1

Sequence	folding stability dG unfold [1] [kcal/mol]	folding stability dG unfold [2] [kcal/mol]	folding stability dG unfold [3] [kcal/mol]
SAGGSAGGSAGGKIKDIDVQQMPDGWYWVEIEIPDPNGEEVKITIMFPPGHSVDDALDQLSAGGSAGGSAGG [r7_54_TrROS]	1.03 ± 0.093	1.01 ± 0.069	1.04 ± 0.22
SYTLEFEDITLKPVEPGTKISIPGYVKYDGVLYKVTEVTYDPEKGTITITIKVEPEGKPKTLTITIPIPPPS [r1_47_JUSTAS]	1.85 ± 0.086	2.24 ± 0.11	2.06 ± 0.19
SMSMEEAMEWAEENPDRPVIFINPEDWYIMIYNPKKGKMEMRPITSPEEALEELDDENIDRIYIVPADEISA [r9_775_TrROS]	2.31 ± 0.061	1.21 ± 0.064	1.96 ± 0.088
SAGGSAGGSAGKVIIIKVPKKDMTPEEVEKLAKELKEKFPDAKITVIEVKKDGYIIIKIDSAGGSAGGSAGG [r11_365_TrROS_Hall]	2.73 ± 0.079	1.91 ± 0.063	2.47 ± 0.11
SAGGMITEKVEKIDDGEIIKLTANLSDPSPVVAWLKATGKNVKLVEIKPTTDPETGNTTVNATFLLPSAGGS [r16_699_JUSTAS]	-0.234 ± 0.41	0.109 ± 0.25	0.0229 ± 0.22
SMVVIEVEPNPETNSLTAKVYLPKDGKKVVEIERSPDGTVKVTVYYKDGSKEEFTFPEDIPIEEAIKKAISA [r9_346_TrMRF]	1.1 ± 0.13	1.16 ± 0.037	1.15 ± 0.095
SAPPDDWKPVTIPILIPFDSVEDAKEWVIELANELAKKHGWRINIDVDIEPVPNRYYIKIPITIYVPKKSAG [r14_626_TrROS]	2.42 ± 0.18	2.39 ± 0.19	2.47 ± 0.31
SAGGSAGGSAGDAEEIADEIRENMYGPDGKYVPKEVEIKEIEPPPGQLKVEIEMPPGMPISAGGSAGGSAGG [r17_519_TrROS]	0.954 ± 0.077	1.81 ± 0.13	1.32 ± 0.16
SAGGSAGGSSGTVTLRLRFRVVDLDPATGEASEHEFELTLTVPIELPAAAPPATPTYGLTLPGSAGGSAGGS [r12_140_TrMRF]	2.79 ± 0.074	0.895 ± 0.12	2.39 ± 0.16
SAGGMNIVTYTLTIPPGRIEEVKEAIEALGIPVVKVELVEVLPGEGLAIVKIEVPNNVDPEKVKKALSSAGG [r13_725_JUSTAS]	4.13 ± 0.14	3.97 ± 0.19	4.09 ± 0.12
SAGNIRIDVHVPPDGYYMIKIRFPGNGREANIMLPPNDPDKFKELAEEIAENLFEEGFPIEVDIEPIPPSAG [r5_815_TrROS]	2.34 ± 0.095	1.56 ± 0.07	1.89 ± 0.31
SAGGSAGGSSVSVGVPSSYASVEVTVLKEEPGKGLVTVKVTTTVPGTGEVLTETVTIPRSELLSAGGSAGGS [r12_964_JUSTAS]	0.517 ± 0.043	1.01 ± 0.034	0.828 ± 0.046
SAGLRVVAVARTPDGSLVVVYELPDRLVVLRYTPTAITSVAVFPVPPVPPPPAVPRYYDPVTGRWVDGSAGG [r19_254_TrMRF]	3.641 ± 0.026	1.71 ± 0.029	3.02 ± 0.061
SAGGSAGGSAGGDSMSYDPKLVEEPVVEVFDGPVLVRVTEVTLPNGKKLTTTEELPPGLESAGGSAGGSAGG [r7_846_JUSTAS]	0.796 ± 0.05	-0.436 ± 0.17	0.546 ± 0.09
SKKKIEIEVIDLKTGKTETIEADTLEEALEEIKKNAPPGSTVIVRIKLPDGSVLEITLEIKPEKVTEKEKSA [r9_482_TrROS_Hall]	1.37 ± 0.087	0.956 ± 0.074	1.21 ± 0.22
SAGGSAGGSAGMVTRRMTPEEAEKFIADLPSDWSVEEISPLPENDIVEIKIKVEPPFKLQSAGGSAGGSAGG [r17_98_JUSTAS]	1.76 ± 0.035	-0.199 ± 0.09	1.28 ± 0.097
SKIEIDEFPWERNPDDGYATIQIKIKVRDPDKKKKDIPHEFPPGSSPDQFWDQIENRAQNNGIKDVEISWSA [r9_1203_TrROS]	-0.0831 ± 0.11	0.0973 ± 0.058	0.032 ± 0.13
SAGGSVEKKLLEYDPATGNRLVEVTAKAKPEVVEELIAKGYDPSTISPLGDGTVRALLTIPPDEKLDSAGGS [r16_755_JUSTAS]	-0.332 ± 0.25	-0.295 ± 0.25	-0.248 ± 0.21
SAGGSAGGSASYIPVTYSFFFPDKPYVERVEAEYELGPDGTPRILSAKVEVFPVDFSPDELSAGGSAGGSAG [r3_138_TrMRF]	0.279 ± 0.16	0.823 ± 0.039	0.663 ± 0.068
SAGGSMPPDTEIAVIRVEVRPPDGSTLPLLFTVPLEKVEEVAKEIAERLREKGYEVKVELAAVFPVSAGGSA [r2_274_TrMRF]	2.18 ± 0.06	2.06 ± 0.057	2.04 ± 0.11
SIKIEPHPDGFFMLRFPDNGHKIMIRVDPEKGKVKIMFETPGQPVEQEIDPDEGTITIEFPNNKIEIPIKSA [r9_541_TrROS]	1.14 ± 0.24	2.42 ± 0.1	1.56 ± 0.23

Sequence	folding stability dG unfold [1] [kcal/mol]	folding stability dG unfold [2] [kcal/mol]	folding stability dG unfold [3] [kcal/mol]
SAGGKSVHIPGLSFEDLRDLIRNLPEPVTIHIEMPMRYPMYKYENGKPKEWQRQEMPMTSTFKIPPDDSAGG [r13_632_TrROS]	-0.522 ± 0.36	-1.01 ± 0.47	-0.565 ± 0.23
SAGGSAGGSGGMMPVTLTITPVNPPGASTSSTTIPVNFTSPEEAAAAKEKIAAELPSNATVTGSAGGSAGGS [r20_211_JUSTAS]	-1.1 ± 0.4	0.442 ± 0.0095	0.0375 ± 0.072
SAGGSAGGSAGGLPKPVTVTLSRPEGGETLTLTFPSGTTPEEVRAAVEAEPDLSILSISSSAGGSAGGSAGG [r7_624_JUSTAS]	0.892 ± 0.063	1.2 ± 0.074	1.1 ± 0.059
SAGGSMPPIVASVVEVRFYRFEEEDRERLEAEVTLKLKDGSTATIRLEFPDLSEEELLKTVEETLLSAGGSA [r2_26_JUSTAS]	2.525 ± 0.022	1.78 ± 0.042	2.31 ± 0.043
SAGGSAGGSAGGKTLRIKVEETEYVVLFPNTGRLLVIPPGYEAEIELDDAPDVLILGRPPSAGGSAGGSAGG [r11_939_TrMRF]	1.79 ± 0.16	0.123 ± 0.18	1.34 ± 0.13
SKNYPIRISIFQRNPNGNPQTVTYPIPVDAAKELKDAGFEVKDVDPDSGMIMVKFPMPNYPVYIMISIEDSA [r9_5_TrROS]	3.12 ± 0.056	2.75 ± 0.093	2.98 ± 0.13
SAGGTMTIEAWVKYKDMTPEEMREQAKEIAENIMNMMRQRGFPIKKIEVDVEQDPGNGWVQVTIEIEFSAGG [r13_212_TrROS]	4.62 ± 0.13	3.45 ± 0.15	4.24 ± 0.18
SAGGSAKTISIIIPFKGLTPEQAIEIAKELEKLLGTKAKIESIPGKGYILVTLELPNKTSYIIIPGSAGGSA [r15_168_TrMRF]	2.08 ± 0.039	1.81 ± 0.041	2 ± 0.053
SAGGSMTAEELAEELAARHPDATVERSPSGVVTFRLPATGLTVTVSSGAGELRITVEDPTVPRRTLESAGGS [r16_478_JUSTAS]	-0.527 ± 0.5	0.0944 ± 0.27	-0.312 ± 0.3
SAGDPDRPVVVVIHYVDPETGEPRVEVFPADRIERIEVSPDGVLRIHLPAYGLEIDFPLDVVDHVDIASAGG [r19_416_TrMRF]	2.17 ± 0.044	1.99 ± 0.064	2.12 ± 0.027
SAGGSAKPKIKITITRNEDGSLLVRITLPDGREVELSVDDIKALEDAGINLDDVEITEVEVSPEDLSAGGSA [r15_955_TrROS_Hall]	2.71 ± 0.067	3.92 ± 0.12	3.36 ± 0.13
SAGGSAKVKIEVIELPPGMTEEELRKLAEEKGLKVEKVDKENLLVKITAKSKEEAEKIKKELEEKLSAGGSA [r15_546_TrROS_Hall]	0.748 ± 0.13	0.449 ± 0.14	0.511 ± 0.27
SAGGSAMTITVTLTFKSEEEALAAIRELAEALGLEIESVEIRYDPETEEVTVTATIRLPPPPPELLSAGGSA [r15_254_TrROS_Hall]	2.62 ± 0.033	2.73 ± 0.16	2.75 ± 0.11
SAGGMKPGESSTVPPVVERTTSPDSLGNPRYTVTRVTEITVTYFPDSINVTVTTETTVVSTATPGLLSAGGS [r8_70_JUSTAS]	1.15 ± 0.031	2.2 ± 0.059	1.78 ± 0.07
SAEKKVLVKVKIEVFNEDGELVEELELEVEMSAEEVKKKIKEELLKLLKEKYPDKPLTIKVEVEVKELPSAG [r14_570_TrROS_Hall]	3.61 ± 0.19	4.36 ± 0.74	3.67 ± 0.23
SAGGSANNPKPRIIEIPIQFDWPPGDPQQMRNLAETIADEFSDPGYRVEIDEFTPDYFMFNIKIEWSAGGSA [r15_563_TrROS]	2.937 ± 0.025	2.13 ± 0.1	2.72 ± 0.12
SAGGSSPPGVKVEVTVEVTYIPSKGGYKLTFYRPGGEKVDTKELEKDKLEEAKEELKAKGFDVVKIKKSAGG [r13_765_JUSTAS]	0.882 ± 0.18	-0.402 ± 0.41	0.347 ± 0.21
SAGKPPPVKIEVNYRRTPDNSYRAEVQIRLPDGKPLFEVTYPFDNPDDPEARERFVRKARNLAKELANSAGG [r19_13_TrROS]	1.8 ± 0.19	1.9 ± 0.14	2.14 ± 0.5
SAGMNLSPEEIAERIREEAKKKYPNSEVEVRIVSQPPTTIVLEVKITIYFPEEGGSIIEEPRVITIDRLSAG [r14_187_JUSTAS]	2.17 ± 0.13	2.05 ± 0.076	2.15 ± 0.13
SAGGSASMARVEAIAEEIAPRLKAEGRPIARIEVTATRLPDGTVVVPITLTTPDGTPVYTFEVVVESAGGSA [r15_232_JUSTAS]	1.74 ± 0.032	1.03 ± 0.051	1.48 ± 0.058
SAGGSAGGEFTVTVTIEKDEEKGFIRIPISVSLPSSAFVPKTVEFLEFAKTLKENLPELEVDASSAGGSAGG [r6_102_TrMRF]	0.65 ± 0.075	0.609 ± 0.018	0.679 ± 0.038
